Source: US10087225B2, “Formulation of MK2 inhibitor peptides” (MOERAE MATRIX, INC., priority 2015, dated 2018)

Experiments:
Snk(h) = Snk(h) (Homo sapiens, UniProt Q9NYY3); assay: Kinase Profiling Assay; format: biochemical
HCAVSMCs = assay: Flow cytometric intracellular uptake, retention and half-life (2 h treatment); settings: fluorescence 0 and 5 days after treatment removal; listed as MK2i
Procedure: HCAVSMCs were grown to 80-90% confluence, harvested, and seeded at 20,000 cells/well in a 24 well plate and allowed to adhere overnight in low serum media (DMEM, 1% FBS, and 1% P/S). […] Following treatment, cells were washed with PBS −/−, washed with CellScrub buffer (Genlantis) for 10 minutes at room temperature to remove extracellular polyplexes and/or peptide, washed 2× in PBS −/−, and given fresh complete growth media. Cells were then incubated for an additional 0, 12, 24, 72, or 120 hours. Cells were then washed with PBS −/−, trypsinized, and resuspended in 0.1% Trypan blue in PBS (−/−) for analysis on a FACSCalibur flow cytometer (Becton Dickinson) with BD CellQuest™ Pro software (V 5.2). Data was exported and analyzed with FlowJo software (V 7.6.4). All samples were run in triplicate.

FGFR2(N549H)(h) = FGFR2(N549H)(h) (Homo sapiens, UniProt P21802, N549H); assay: Kinase Profiling Assay; format: biochemical
FGFR2(N549H)(h), sequence (P21802 22-821 N549H): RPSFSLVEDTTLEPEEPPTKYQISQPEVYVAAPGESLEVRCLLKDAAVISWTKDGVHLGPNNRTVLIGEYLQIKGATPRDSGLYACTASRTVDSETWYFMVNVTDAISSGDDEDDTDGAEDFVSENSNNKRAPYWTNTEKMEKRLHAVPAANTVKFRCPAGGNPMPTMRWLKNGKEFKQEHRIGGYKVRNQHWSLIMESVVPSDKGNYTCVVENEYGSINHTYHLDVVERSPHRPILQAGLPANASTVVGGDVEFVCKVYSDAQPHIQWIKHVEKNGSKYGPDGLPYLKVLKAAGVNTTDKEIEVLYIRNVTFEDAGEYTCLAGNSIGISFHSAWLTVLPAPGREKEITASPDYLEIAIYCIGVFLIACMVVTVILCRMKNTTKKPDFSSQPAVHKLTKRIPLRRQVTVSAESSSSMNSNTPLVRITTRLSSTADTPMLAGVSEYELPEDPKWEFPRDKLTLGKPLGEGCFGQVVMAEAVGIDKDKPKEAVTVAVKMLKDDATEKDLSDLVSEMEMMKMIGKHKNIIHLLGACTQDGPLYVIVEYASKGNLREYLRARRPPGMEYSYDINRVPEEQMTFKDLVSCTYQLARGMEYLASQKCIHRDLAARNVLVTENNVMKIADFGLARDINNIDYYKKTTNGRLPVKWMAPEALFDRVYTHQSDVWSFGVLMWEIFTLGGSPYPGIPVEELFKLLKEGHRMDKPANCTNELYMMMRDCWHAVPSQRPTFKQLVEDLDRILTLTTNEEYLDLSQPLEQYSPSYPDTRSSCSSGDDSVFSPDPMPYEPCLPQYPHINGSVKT

ROCK-I(h) = ROCK-I(h) (Homo sapiens, UniProt Q13464); assay: Kinase Profiling Assay; format: biochemical; settings: 100 μM
ROCK-I(h), sequence (Q13464 whole entry): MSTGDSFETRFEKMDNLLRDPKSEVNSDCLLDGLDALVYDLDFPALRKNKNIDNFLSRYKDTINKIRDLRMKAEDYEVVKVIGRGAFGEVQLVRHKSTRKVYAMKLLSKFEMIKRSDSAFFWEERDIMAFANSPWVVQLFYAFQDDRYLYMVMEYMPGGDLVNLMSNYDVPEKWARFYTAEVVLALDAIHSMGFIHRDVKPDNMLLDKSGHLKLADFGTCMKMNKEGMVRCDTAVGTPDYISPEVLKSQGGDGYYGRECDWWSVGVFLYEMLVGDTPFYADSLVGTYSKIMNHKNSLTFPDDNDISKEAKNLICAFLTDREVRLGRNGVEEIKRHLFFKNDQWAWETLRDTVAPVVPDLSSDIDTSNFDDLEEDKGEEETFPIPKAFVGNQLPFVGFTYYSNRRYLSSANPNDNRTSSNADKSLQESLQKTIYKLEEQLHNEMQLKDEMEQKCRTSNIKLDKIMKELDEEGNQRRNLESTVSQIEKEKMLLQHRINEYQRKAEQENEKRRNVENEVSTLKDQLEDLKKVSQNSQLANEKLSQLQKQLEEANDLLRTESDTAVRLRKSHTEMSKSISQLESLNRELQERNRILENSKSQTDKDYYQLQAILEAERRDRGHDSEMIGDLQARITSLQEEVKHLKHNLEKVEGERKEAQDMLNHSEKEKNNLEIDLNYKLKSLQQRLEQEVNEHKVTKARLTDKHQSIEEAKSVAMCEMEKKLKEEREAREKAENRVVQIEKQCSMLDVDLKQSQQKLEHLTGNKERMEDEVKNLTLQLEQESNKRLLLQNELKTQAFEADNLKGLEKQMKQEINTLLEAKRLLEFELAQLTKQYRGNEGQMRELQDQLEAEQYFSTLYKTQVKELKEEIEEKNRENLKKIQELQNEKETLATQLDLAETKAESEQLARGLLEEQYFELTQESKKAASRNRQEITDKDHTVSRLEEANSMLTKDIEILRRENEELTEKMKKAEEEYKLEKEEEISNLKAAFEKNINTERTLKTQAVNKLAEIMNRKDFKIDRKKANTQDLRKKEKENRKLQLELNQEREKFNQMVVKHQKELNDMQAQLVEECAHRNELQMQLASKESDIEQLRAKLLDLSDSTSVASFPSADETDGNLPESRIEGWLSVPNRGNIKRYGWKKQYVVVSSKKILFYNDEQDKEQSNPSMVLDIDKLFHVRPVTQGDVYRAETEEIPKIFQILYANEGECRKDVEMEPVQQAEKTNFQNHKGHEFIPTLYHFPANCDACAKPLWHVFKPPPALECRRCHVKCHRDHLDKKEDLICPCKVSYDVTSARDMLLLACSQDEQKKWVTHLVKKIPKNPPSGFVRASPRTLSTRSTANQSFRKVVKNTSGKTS

CHK2(h) = CHK2(h) (Homo sapiens, UniProt O96017); assay: Kinase Profiling Assay; format: biochemical; settings: 100 μM
CHK2(h), sequence (O96017 whole entry): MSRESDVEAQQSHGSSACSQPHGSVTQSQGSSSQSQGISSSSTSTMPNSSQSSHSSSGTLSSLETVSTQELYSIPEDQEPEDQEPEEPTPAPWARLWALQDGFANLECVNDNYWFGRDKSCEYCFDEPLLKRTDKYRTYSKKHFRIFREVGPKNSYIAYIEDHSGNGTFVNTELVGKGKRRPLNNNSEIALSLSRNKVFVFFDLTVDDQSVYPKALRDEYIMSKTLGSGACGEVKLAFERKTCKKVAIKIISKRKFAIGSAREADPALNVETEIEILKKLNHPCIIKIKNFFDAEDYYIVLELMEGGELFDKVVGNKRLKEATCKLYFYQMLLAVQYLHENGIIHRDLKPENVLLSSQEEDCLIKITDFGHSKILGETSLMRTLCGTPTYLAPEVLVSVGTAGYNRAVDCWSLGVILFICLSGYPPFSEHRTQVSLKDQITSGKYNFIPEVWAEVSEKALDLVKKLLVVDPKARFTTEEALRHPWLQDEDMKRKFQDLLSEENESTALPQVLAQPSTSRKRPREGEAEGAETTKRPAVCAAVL

NEK11(h) = target: T1, NEK11(h) (Homo sapiens, UniProt Q8NG66); assay: Kinase Profiling Assay; format: biochemical; settings: 100 μM
T1 sequence (Q8NG66 1-645): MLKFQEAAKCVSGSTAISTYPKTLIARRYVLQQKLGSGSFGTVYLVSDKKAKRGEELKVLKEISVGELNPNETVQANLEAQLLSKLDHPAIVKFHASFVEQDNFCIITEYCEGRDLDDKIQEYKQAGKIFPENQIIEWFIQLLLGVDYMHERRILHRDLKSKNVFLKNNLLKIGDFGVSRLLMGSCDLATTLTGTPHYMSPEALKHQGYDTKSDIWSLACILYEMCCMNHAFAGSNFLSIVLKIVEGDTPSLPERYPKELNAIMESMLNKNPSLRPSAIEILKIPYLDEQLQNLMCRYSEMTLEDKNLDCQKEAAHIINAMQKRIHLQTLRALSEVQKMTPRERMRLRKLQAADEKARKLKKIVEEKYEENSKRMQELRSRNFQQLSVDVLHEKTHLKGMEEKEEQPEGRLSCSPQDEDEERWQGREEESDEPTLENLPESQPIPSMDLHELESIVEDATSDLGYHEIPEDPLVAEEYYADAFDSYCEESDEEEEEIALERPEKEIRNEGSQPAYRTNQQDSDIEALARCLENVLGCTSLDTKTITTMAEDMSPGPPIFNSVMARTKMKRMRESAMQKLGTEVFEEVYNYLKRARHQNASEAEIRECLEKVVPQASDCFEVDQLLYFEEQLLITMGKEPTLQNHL

Ab1(Q252H)(h) = Ab1(Q252H)(h) (Homo sapiens, UniProt P00519, Q252H); assay: Kinase Profiling Assay; format: biochemical; settings: 100 μM
CDK2/cyclinA(h) = CDK2/cyclinA(h) (Homo sapiens, UniProt P24941); assay: Kinase Profiling Assay; format: biochemical; settings: 100 μM
CDK3/cyclinE(h) = CDK3/cyclinE(h) (Homo sapiens, UniProt Q00526); assay: Kinase Profiling Assay; format: biochemical; settings: 100 μM
CDK2/cyclinE(h) = CDK2/cyclinE(h) (Homo sapiens, UniProt P24941); assay: Kinase Profiling Assay; format: biochemical; settings: 100 μM
SIK(h) = SIK(h) (Homo sapiens, UniProt P57059); assay: Kinase Profiling Assay; format: biochemical; settings: 100 μM
SIK(h), sequence (P57059 whole entry): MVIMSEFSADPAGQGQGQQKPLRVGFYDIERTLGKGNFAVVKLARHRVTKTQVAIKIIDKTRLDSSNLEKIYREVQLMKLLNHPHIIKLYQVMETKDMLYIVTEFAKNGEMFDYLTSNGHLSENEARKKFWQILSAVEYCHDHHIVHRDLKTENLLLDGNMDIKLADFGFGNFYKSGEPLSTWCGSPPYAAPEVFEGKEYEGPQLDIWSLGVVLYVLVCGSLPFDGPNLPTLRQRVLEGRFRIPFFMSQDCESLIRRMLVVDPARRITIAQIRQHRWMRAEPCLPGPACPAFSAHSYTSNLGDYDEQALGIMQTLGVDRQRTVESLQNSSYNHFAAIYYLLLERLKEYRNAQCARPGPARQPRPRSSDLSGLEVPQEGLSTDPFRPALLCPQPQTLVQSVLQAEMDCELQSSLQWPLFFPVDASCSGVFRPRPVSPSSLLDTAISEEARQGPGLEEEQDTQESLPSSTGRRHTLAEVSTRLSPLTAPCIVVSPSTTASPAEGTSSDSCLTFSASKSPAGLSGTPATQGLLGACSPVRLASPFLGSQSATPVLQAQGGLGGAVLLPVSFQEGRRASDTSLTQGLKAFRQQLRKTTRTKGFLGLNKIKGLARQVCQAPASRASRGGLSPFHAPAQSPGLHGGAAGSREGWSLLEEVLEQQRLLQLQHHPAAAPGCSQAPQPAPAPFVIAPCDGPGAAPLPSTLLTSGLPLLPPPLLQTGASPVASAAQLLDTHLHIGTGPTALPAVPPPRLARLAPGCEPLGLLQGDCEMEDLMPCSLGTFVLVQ

PDK1(h) = target: T2, PDK1(h) (Homo sapiens, UniProt O15530); assay: Kinase Profiling Assay; format: biochemical; settings: 100 μM
T2 sequence (O15530 1-556): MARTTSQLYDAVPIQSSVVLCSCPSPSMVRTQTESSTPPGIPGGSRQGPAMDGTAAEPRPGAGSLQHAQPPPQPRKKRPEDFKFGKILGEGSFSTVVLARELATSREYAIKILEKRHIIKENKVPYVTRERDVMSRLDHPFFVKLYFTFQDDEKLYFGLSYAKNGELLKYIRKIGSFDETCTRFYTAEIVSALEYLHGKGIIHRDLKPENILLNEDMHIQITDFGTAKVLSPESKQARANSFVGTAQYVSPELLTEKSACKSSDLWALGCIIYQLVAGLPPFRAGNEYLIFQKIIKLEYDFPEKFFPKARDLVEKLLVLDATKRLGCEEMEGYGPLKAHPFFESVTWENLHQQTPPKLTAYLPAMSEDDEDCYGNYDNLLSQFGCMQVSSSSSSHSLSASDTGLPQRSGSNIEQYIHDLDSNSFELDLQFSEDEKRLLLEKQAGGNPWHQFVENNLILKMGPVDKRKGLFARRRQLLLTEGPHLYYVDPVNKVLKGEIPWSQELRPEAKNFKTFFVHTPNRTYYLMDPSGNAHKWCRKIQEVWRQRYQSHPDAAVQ

Ab1(Y253F)(h) = Ab1(Y253F)(h) (Homo sapiens, UniProt P00519, Y253F); assay: Kinase Profiling Assay; format: biochemical; settings: 100 μM
SGK2(h) = target: T3, SGK2(h) (Homo sapiens, UniProt Q9HBY8); assay: Kinase Profiling Assay; format: biochemical; settings: 100 μM
T3 sequence (Q9HBY8 1-367): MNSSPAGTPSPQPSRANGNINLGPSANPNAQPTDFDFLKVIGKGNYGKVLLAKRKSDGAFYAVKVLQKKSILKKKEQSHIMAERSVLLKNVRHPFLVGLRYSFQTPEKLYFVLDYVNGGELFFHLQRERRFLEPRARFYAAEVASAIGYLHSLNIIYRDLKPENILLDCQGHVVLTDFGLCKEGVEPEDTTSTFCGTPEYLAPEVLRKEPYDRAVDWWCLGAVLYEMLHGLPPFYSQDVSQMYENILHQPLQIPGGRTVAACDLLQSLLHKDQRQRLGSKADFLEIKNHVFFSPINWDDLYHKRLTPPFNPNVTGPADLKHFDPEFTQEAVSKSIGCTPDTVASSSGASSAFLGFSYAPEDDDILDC

CK1γ1(h) = CK1γ1(h) (Homo sapiens, UniProt Q9HCP0); assay: Kinase Profiling Assay; format: biochemical; settings: 100 μM
CK1γ1(h), sequence (Q9HCP0 whole entry): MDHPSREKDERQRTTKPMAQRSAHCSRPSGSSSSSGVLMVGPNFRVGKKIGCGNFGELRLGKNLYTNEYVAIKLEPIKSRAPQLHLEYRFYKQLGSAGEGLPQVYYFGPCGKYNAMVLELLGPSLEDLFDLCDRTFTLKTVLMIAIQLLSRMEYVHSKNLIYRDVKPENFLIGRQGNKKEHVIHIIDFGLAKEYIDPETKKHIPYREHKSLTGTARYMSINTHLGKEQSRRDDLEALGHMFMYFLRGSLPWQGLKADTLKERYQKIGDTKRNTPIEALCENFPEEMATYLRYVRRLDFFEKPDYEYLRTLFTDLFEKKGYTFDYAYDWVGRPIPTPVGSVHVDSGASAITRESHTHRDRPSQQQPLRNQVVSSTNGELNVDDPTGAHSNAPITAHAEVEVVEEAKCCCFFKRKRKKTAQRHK

EphA2(h) = EphA2(h) (Homo sapiens, UniProt P29317); assay: Kinase Profiling Assay; format: biochemical; settings: 100 μM
TAK1(h) = target: T4, TAK1(h) (Homo sapiens, UniProt O43318); assay: Kinase Profiling Assay; format: biochemical; settings: 100 μM
T4 sequence (O43318 1-303 limits assumed): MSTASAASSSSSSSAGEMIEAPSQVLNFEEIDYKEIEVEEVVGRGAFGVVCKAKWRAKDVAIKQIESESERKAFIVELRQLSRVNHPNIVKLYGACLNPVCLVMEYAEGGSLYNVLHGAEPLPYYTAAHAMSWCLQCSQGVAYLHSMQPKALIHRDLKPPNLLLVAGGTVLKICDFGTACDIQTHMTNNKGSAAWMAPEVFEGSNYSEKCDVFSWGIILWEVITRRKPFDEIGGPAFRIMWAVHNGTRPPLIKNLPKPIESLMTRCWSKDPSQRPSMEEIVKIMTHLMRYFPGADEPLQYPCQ

Snk(h), sequence (Q9NYY3 whole entry): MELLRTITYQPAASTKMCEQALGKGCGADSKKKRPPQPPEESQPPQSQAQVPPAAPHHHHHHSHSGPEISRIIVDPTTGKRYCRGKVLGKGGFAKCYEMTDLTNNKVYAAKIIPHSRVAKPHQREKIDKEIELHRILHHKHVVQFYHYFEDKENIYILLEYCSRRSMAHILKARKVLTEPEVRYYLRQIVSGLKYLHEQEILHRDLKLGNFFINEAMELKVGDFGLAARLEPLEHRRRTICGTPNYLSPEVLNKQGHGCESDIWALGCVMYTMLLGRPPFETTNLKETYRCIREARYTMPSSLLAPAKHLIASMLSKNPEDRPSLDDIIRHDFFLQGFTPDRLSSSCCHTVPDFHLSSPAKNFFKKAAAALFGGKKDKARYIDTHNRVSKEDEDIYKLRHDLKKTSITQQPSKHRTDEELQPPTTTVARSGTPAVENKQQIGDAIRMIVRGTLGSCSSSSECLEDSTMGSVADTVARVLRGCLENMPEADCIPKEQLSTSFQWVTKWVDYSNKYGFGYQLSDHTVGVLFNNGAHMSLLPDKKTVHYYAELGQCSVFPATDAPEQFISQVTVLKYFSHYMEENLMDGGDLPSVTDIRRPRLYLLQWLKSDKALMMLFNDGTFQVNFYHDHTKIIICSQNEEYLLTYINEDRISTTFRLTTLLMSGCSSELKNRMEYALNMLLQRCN

Substance	activity at 100 µM (Snk(h))	intracellular half-life (t1/2) (HCAVSMCs)	activity at 100 µM (FGFR2(N549H)(h))	% activity (ROCK-I(h))	% activity (CHK2(h))	% activity (NEK11(h))	% activity (Snk(h); 100 μM)	% activity (Ab1(Q252H)(h))	% activity (CDK2/cyclinA(h))	% activity (CDK3/cyclinE(h))	% activity (CDK2/cyclinE(h))	% activity (SIK(h))	% activity (PDK1(h))	% activity (Ab1(Y253F)(h))	% activity (SGK2(h))	% activity (CK1γ1(h))	% activity (EphA2(h))	% activity (TAK1(h))
H-YARAAARQARAKALARQLGVAA-OH [MMI-0100]	94%	98.4 h	95%	–	–	–	–	–	–	–	–	–	–	–	–	–	–	–
HRRIKAWLKKIKALARQLGVAA (Mammalian) [MMI-0500]	–	–	–	17%	13%	2%	122%	40%	87%	8%	19%	40%	178%	29%	-1%	–	–	–
YARAAARQARAKALNRQLGVA (Mammalian) [MMI-0200]	–	–	–	–	–	95%	–	–	–	–	–	–	143%	–	–	98%	95%	124%
